Results taken from patent US9290794B2, “Mutant protease biosensors with enhanced detection characteristics” (PROMEGA CORPORATION, priority 2010, dated 2016).

Assays:
[1] = test system: Caspase-8; experiment: Caspase-8 biosensors transfected into HeLa cells, induction with TRAIL; assay type: cell-based; settings: 1 μg/mL TRAIL, 37° C.
From the text: To evaluate whether the mutant thermostable luciferase biosensors of the present invention can be used to detect Caspase-8 activity in cells, biosensors were generated that contained the Caspase-8 cleavage site, LETDG (SEQ ID NO:15). Two different biosensors, TL-CP358-Caspase-8 and TL-CP233-Caspase-8 were used. As controls, the firefly (Photinus pyralis; Ppy) luciferase biosensors FF-CP234-Caspase-8 (M/Ppy residues 234-544/LETDG/Ppy residues 4-230/V), FF-CP359-Caspase-8 (M/Ppy residues 359-544/LETDG/Ppy residues 4-355/V), and TL-CP358-DEVD.
All biosensors were transfected into HeLa cells. Cells were plated at a (10,000/well) into a 96-well tissue culture plate. […]
After overnight incubation, the media was removed from the cells and replaced with CO2 Independent Media (Invitrogen Cat. No. 18045088) with 2 mM Luciferin EF (Promega Cat. No. E6551). Cells were pre-equilibrated with Luciferin EF for 2 hrs in a Varioskan luminometer with bioluminescence readings taken every 20 min. […] The cells were again incubated at 37° C. in a Varioskan luminometer for 500+ min with bioluminescence measured every 20 min.
FIGS. 5 and 7 identify the kinetic profiles of Caspase 8 activation by TRAIL over time at 37° C. […] Fold induction of activation was calculated by dividing the signal of samples with TRAIL over the signals without trail at a given time point. […]

[2] = test system: caspase-3; experiment: Cell-free (wheat germ) expressed CBS-HT, caspase-3 cleavage reaction, luminescence; assay type: biochemical; settings: WG(HY), MIN. 5
Protocol: The CBS variant 1A5 was cloned into the vector pFN19K HaloTag® (Promega Cat. No. G1841) to generate a CBS-HaloTag® (CBS-HT) fusion protein (SEQ ID NOs:71 and 72). 20 μl (8 μg) of the CBS-HT vector was added to 30 μl TnT® SP6 High-Yield Wheat Germ Expression System (Promega Cat. No. L3261) and incubated at 25° C. for 90 min.
For the CBS-HT caspase-3 cleavage reaction, one volume of the expression reaction was incubated with an equal volume of either an E. coli lysate containing caspase-3 or C(3) Lysis Buffer (0.8× FastBreak (Promega Cat. No. V857A), 10 mM DTT, 0.1% CHAPS, 0.8 mg/mL Lysozyme, 3 U/μL RQ1 DNase (Promega Cat. No. M610A)) and incubated for 60 min at room temperature. The E. coli lysate containing caspase-3 was prepared from KRX cells overexpressing recombinant caspase-3. Briefly, KRX cells were transformed with pTS1k:caspase-3(T/S). A starter culture (50 mL, LB Broth) was inoculated from a single colony and grown for 17-22 hrs at 37° C. with shaking (275 rpm). The starter culture was diluted (1:50) into fresh media and growth was continued for an additional 3 hrs. The incubation temperature was then lowered to 25° C. and, after 15 min, expression of caspase-3 was initiated by addition of rhamnose (0.2% final concentration). After 2 hr, cells were collected by centrifugation, re-suspended in 50 mL C(3) Lysis Buffer and incubated at ambient temperature (i.e. 22-24° C.) for 10 min. The lysate was clarified by centrifugation (20,000×g for 20 min at 4° C.) and used as the Caspase-3 source.
Cleavage of CBS-HT by Caspase-3 was detected in two different ways: by SDS-PAGE analysis and luminescence detection. […] After electrophoresis, CA-TAM labeled species were detected by fluorescent imaging (ex:532, Em:580; FIG. 17). For detection via luminescence, 40 μL of the cleavage reaction samples were added to 60 μL buffer (50 mM HEPES (pH 7.5) and 100 μL Bright-Glo assay reagent. Luminescence was detected as previously described (Table 7).

[3] = test system: caspase-3; experiment: CBS-HT (cell-free expressed) immobilized to HaloLink resin, caspase-3 cleavage reaction; assay type: biochemical
Protocol: For immobilization to a resin (FIG. 18A), HaloLink resin (25% slurry, Promega Cat. No. G1912) was first equilibrated with HTPB Buffer (50 mM HEPES (pH 7.5), 150 mM NaCl, 1 mM DTT and 0.5 mM EDTA). Resin from one volume of slurry was collected by centrifugation (5 min at 1000×g), and the storage buffer was removed. The resin pellet was re-suspended in 2 volumes of HTPB and mixed. This process was repeated for a total of three HTPB washes. 100 μL of the CBS-HT fusion from Example XI (cell free expression reaction) was mixed with 25 μL washed resin (50% slurry in HTPB) and incubated overnight with mixing at 4° C. Incubation was continued at ambient temperature for 2 hrs. After incubation, the resin was washed to remove un-bound CBS. The resin was split into two 50 μl aliquots, and each aliquot was washed 3 times with HTPB. The final resin pellets were re-suspended in 50 μL HTPB.
For the CBS caspase-3 cleavage reaction, 20 μl of the washed resin was mixed with 20 μL of either E. coli lysate containing caspase-3 or C(3) Lysis Buffer (as in Example XI) and incubated for 30 min at ambient temperature. 60 μl HEPES pH 7.5 was added to the samples, followed by the addition of 100 μl Bright-Glo Assay Reagent. Luminescence was detected as previously described (Table 8 and FIG. 19).

[4] = test system: caspase-3; experiment: CBS-HT (cell-free expressed) immobilized to HaloTag ligand microtiter plate, caspase-3 cleavage; assay type: biochemical
Protocol: For immobilization to a plate (FIG. 18B), a microtiter plate was prepared containing HaloTag® ligand for immobilizing the CBS-HT fusion protein. Briefly, bicarbonate buffer pH 8.5 (100 μL), containing amine-PEG 2000-Cl alkane HaloTag® ligand (0.25 mM (final concentration; PBI 3961 and methoxy-PEG-NH2 (0.75 mM final concentration) were added to wells of a NHS microtiter plate and incubated for 1 hr at room temperature. The wells were then washed 3 times with PBS containing 0.05% Tween-20. After washing, 50 mM ethanolamine was added, and the plates were incubated for 30 min at room temperature and washed again 3 times with PBS containing 0.05% Tween-20. The plate was then stored at 4° C. with PBS containing 0.05% Tween-20 in each well. For the assay, the wells were washed 3 times with 200 μl HPTB. 50 μl CBS-HT cell-free expression reaction (Example XI) was added to the wells, and incubated overnight at 4° C. Following incubation, the plate was washed 3 times with 200 μl PBSI (1×PBS with 0.05% IGEPAL). 100 μL E. coli lysate containing caspase-3 or C(3) lysis buffer (described above) were added and the plate was incubated for 60 min with mixing at room temperature. The wells were then washed with 100 μl PBSI. 100 μL HEPES pH 7.5 and 100 μl Bright-Glo Assay Reagent were added and luminescence was detected as previously described (Table 9).

B1: TL-CP233-Caspase 8: TL Ppe fragments 233-543 and 4-232 with caspase-8 site linker … (SEQ ID NOs:57 and 58) (protein)
chain: MTSAILTVIPFHHGFGMMTTLGYFTCGFRVVLMHTFEEKLFLQSLQDYKVESTLLVPTLMAFLAKSALVEKYDLSHLKEIASGGAPLSKEIGEMVKKRFKLNFVRQGYGLTETTSAVLITPKGDAKPGSTGKIVPLHAVKVVDPTTGKILGPNEPGELYFKGPMIMKGYYNNEEATKAIIDNDGWLRSGDIAYYDNDGHFYIVDRLKSLIKYKGYQVAPAEIEGILLQHPYIVDAGVTGIPDEAAGELPAAGVVVQTGKYLNEQIVQDYVASQVSTAKWLRGGVKFLDEIPKGSTGKIDRKVLRQMLEKHTNGSSLETDGSSGDKNILYGPEPFYPLEDGTAGEQMFDALSRYAAIPGCIALTNAHTKENVLYEEFLKLSCRLAESFKKYGLKQNDTIAVCSENSLQFFLPVIASLYLGIIVAPVNDKYIERELIHSLGIVKPRIVFCSKNTFQKVLNVKSKLKSIETIIILDLNEDLGGYQCLNNFISQNSDSNLDVKKFKPYSFNRDDQVASIMFSSGTTGLPKGVMLTHKNIVARFSIAKDPTFGNAINPV
detection of Caspase 8 activation by TRAIL [1]: can detect Caspase 8 activation by TRAIL

B2: CBS-HT: CBS variant 1A5 fused to HaloTag, expressed in wheat germ extract (SEQ ID NOs:71 and 72) (protein)
chain: MAEIGTGFPFDPHYVEVLGERMHYVDVGPRDGTPVLFLHGNPTSSYVWRNIIPHVAPTHRCIAPDLIGMGKSDKPDLGYFFDDHVRFMDAFIEALGLEEVVLVIHDWGSALGFHWAKRNPERVKGIAFMEFIRPIPTWDEWPEFARETFQAFRTTDVGRKLIIDQNVFIEGTLPMGVVRPLTEVEMDHYREPFLNPVDREPLWRFPNELPIAGEPANIVALVEEYMDWLHQSPVPKLLFWGTPGVLIPPAEAARLAKSLPNCKAVDIGPGLNLLQEDNPDLIGSEIARWLSTLEISGEPTTEDLYFQSDNAIAMPGSTGKIVPLHAVKVVDPTTGKILGPNEPGELYFKGPMIMKGYYNNEEATKAIIDNDGWLRSGDIAYYDNDGHFYIVDRLKSLIKYKGYQVAPAEIEGILLQHPYIVDAGVTGIPDEAAGELPAAGVVVQTGKYLNEQIVQDYVASQVSIAKWLRGGVKFLDEIPKGSTGKIDRKVLRQMLEKHTNGSDEVDGSLKNILYGPEPFYPLEDGTAGEQMFDALSRYAAIPGCIALTNAHTKENVLYEEFLKLSCRLAESFKKYGLKQNDTIAVCSENSLQFFLPVIASLYLGIIVAPVNDKYIERELIHSLGIVKPRIVFCSKNTFQKVLNVKSKLKSIETIIILDLNEDLGGYQCLNNFISQNSDSNLDVKKFKPYSFNRDDQVASIMFSSGTTGLPKGVMLTHKNIVARFSIAKDPTFGNAINPTSAILTVIPFHHGFGMMTTLGYFTCGFRVVLMHTFEEKLFLQSLQDYKVESTLLVPTLMAFLAKSALVEKYDLSHLKEIASGGAPLSKEIGEMVKKRFKLNFVRQGYGLTETTSAVLITPKGV
RESPONSE [2]: 441
BASAL luminescence ([2]; C(3) Lysis Buffer): 10,494
INDUCED luminescence ([2]; E. coli lysate containing caspase-3): 4,626,173
BASAL luminescence ([3]; sample AS): 29,553
INDUCED luminescence ([3]; sample AS): 5,162,108
RESPONSE ([3]; sample AS): 175
BASAL luminescence ([3]; sample FT): 3,170
INDUCED luminescence ([3]; sample FT): 232,117
RESPONSE ([3]; sample FT): 73
BASAL luminescence ([3]; sample RESIN): 11,219
INDUCED luminescence ([3]; sample RESIN): 1,635,259
RESPONSE ([3]; sample RESIN): 146
BASAL luminescence ([4]; MIN. 0): 66
INDUCED luminescence ([4]; MIN. 0): 1,226
RESPONSE ([4]; MIN. 0): 19
BASAL luminescence ([4]; MIN. 1): 16
INDUCED luminescence ([4]; MIN. 1): 1,636
RESPONSE ([4]; MIN. 1): 102
BASAL luminescence ([4]; MIN. 2): 106
INDUCED luminescence ([4]; MIN. 2): 2,267
RESPONSE ([4]; MIN. 2): 21
BASAL luminescence ([4]; MIN. 3): 66
INDUCED luminescence ([4]; MIN. 3): 2,147
RESPONSE ([4]; MIN. 3): 33
BASAL luminescence ([4]; MIN. 4): 126
INDUCED luminescence ([4]; MIN. 4): 2,297
RESPONSE ([4]; MIN. 4): 18
BASAL luminescence ([4]; MIN. 5): 126
INDUCED luminescence ([4]; MIN. 5): 2,857
RESPONSE ([4]; MIN. 5): 23
BASAL luminescence ([4]; MIN. 6): 76
INDUCED luminescence ([4]; MIN. 6): 3,107
RESPONSE ([4]; MIN. 6): 41
BASAL luminescence ([4]; MIN. 7): 56
INDUCED luminescence ([4]; MIN. 7): 3,377
RESPONSE ([4]; MIN. 7): 60
BASAL luminescence ([4]; MIN. 8): 136
INDUCED luminescence ([4]; MIN. 8): 3,037
RESPONSE ([4]; MIN. 8): 22
BASAL luminescence ([4]; MIN. 9): 116
INDUCED luminescence ([4]; MIN. 9): 3,667
RESPONSE ([4]; MIN. 9): 32
